Data taken from publication PMC4817256.

Target: eukaryotic translation initiation factor 4E (human (endogenous in U2OS and HeLa)) (UniProt P06730)
Assay: proximity ligation

Sequence of UniProt P06730 (P06730 whole entry): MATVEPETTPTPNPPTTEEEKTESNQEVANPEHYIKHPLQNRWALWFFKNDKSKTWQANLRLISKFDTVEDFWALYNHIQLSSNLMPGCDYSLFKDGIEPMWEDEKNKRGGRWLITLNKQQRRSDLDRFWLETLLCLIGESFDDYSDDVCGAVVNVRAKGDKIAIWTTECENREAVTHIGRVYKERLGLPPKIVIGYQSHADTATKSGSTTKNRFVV

Substance: HIV-1 Gag-GFP (natural protein)
- PLA dots per cell (dots per cell): 6.98
